Experiments:
Test in all cases: cell-based or functional assay
caspase-3 (human) = target: T1, caspase-3 (human) (UniProt P42574)
T1 sequence: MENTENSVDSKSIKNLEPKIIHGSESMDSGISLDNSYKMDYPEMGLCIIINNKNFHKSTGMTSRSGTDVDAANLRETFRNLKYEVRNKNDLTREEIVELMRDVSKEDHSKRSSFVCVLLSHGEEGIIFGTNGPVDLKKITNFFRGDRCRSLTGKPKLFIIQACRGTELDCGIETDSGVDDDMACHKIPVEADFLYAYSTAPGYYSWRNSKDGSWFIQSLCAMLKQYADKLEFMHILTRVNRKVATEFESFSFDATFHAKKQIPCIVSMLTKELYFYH

[1] = target: HIV-1 gp41 of WEAU 16-8 (primary virus) (HIV-1 (primary isolate WEAU 16-8))
[2] = target: HIV-1 gp41 of NL4-3 (WT lab-adapted virus) (HIV-1 (NL4-3))

Substance | decrease in CD4 T-cell death in HIV-infected HLACs (caspase-3 (human)) [%] | percentage of viable CD4 T cells in HIV-1-infected HLACs after 3 days (flow cytometry; inhibitors 20 µM each) (caspase-3 (human)) [%] | viral infection of HLACs (p24gag FLAQ assay, day 9) [1] [µg/mL] | viral infection of HLACs (p24gag FLAQ assay, day 9) [2] [µg/mL] | viral infection of HLACs (p24gag FLAQ assay, day 9) (µg/ml (printed 'gi/ml')) [2]
Z-DEVD-FMK (peptide) | 50 | 50 |  |  | 
enfuvirtide (T20) (peptide) |  |  | 0.1 | > 2 | 10
